Series [1] deals with T1, EnfR wild-type (TON_1525) (Thermococcus onnurineus NA1) (UniProt B6YTS4).
T1 sequence: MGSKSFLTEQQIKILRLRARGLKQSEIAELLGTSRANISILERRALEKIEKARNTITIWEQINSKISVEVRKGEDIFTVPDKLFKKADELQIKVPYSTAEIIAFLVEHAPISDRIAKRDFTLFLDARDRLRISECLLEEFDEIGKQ
As to the kind of experiment: DNase I footprinting. As to conditions: EMSA: 10 mM Tris pH 7.4, 200 mM KCl, 2 mM DTT, 0.2 mM EDTA, 37 C 20 min, ITC: 10 mM Tris-HCl pH 7.4, 200 mM KCl, 1 mM TCEP, 25 C, footprint: 20 mM ….

Series [2] has as its target T1, EnfR wild-type (TON_1525) (Thermococcus onnurineus NA1). As to the kind of experiment: EMSA. As to conditions: EMSA: 10 mM Tris pH 7.4, 200 mM KCl, 2 mM DTT, 0.2 mM EDTA, 37 C 20 min, ITC: 10 mM Tris-HCl pH 7.4, 200 mM KCl, 1 mM TCEP, 25 C, footprint: 20 mM ….

As for “GAGAGTTTTACTGTCTCTAAATGAAAGGTTCTAATACGGTGGATCGAATAATTTCTTGCGTTTTTATCCGGATCGCCGAACACGATTCCATCTTAAAATCTTTTTGTTTACATTATACGAGGTGATCAACAATGCCAGCTTTTTCCGGTT (double strand) [150-bp codh promoter probe]”, the binding result in series [1] is “binds”. “AACAGGGTGTTACATACTTTTATTTTCAATTCTAAGCTTCAAAAAACTCTTTTAAAAGTGAACATCCAATTAGGTTTGGGAAATGGTAAACAAAATTGTAAAAGGGTGTTTTGAACCAAACGTGGGGTGATAGAAAGATGGCATTTAT (double strand) [P1582]”: the binding entry in series [2] is “binds”.

The values are drawn from paper PMC10570040.
